Series [1] has as its system OC[C@H]1O[C@@](CO)(O[C@H]2O[C@H](CO)[C@@H](O)[C@H](O)[C@H]2O)[C@@H](O)[C@@H]1O. As to the kind of experiment: Michaelis-Menten kinetics of the conversion of sucrose into isomaltulose (HPLC, initial velocities). The series is classed as biochemical, Serratia plymuthica. As to conditions: 25 mM calcium acetate pH 5.5, 20 °C, 74.7 nM enzyme, 50-400 mM sucrose. How it is done:
(§1) The enzyme activity assay was carried out in 25 mM calcium acetate pH 5.5 in the presence of 1.16 M sucrose (Sigma-Aldrich, St. Louis, MO) for 16 h at 20 °C.
(§2) The reaction mixture was composed as follows:
(§3) The enzymatic product composition was determined on an Agilent 1200 HPLC instrument (Agilent Technologies, Santa Clara, United States of America) equipped with a Smart line refractive index detector 2300 (Knauer, Berlin, Germany). The sample solution was applied on an XBridge amide column (particle size: 5.0 µm, inner diameter: 4.6, length: 250 mm); (Waters, Milford, MA) at a flow rate of 2 mL/min using a running buffer of 57.8 % acetonitrile, 26.1 % acetone and 16.1 % H2O.
The Michaelis constant (KM), the turnover number (kcat) and the catalytic efficiency (kcat/KM) were determined for isomaltulose. To this end, the enzymatic reaction was carried out as described above at sucrose concentrations of 50 mM, 100 mM, 150 mM, 200 mM, 300 mM and 400 mM and stopped after 10 min, 20 min, 30 min and 40 min by heating the sample at 95 °C for 10 min. To determine the initial velocities at these sucrose concentrations, the isomaltulose yield was analysed via HPLC and plotted against the […]. The slope of the subsequent linear regression corresponded to the initial velocity.
Figure 1 illustrates analysis of the enzyme kinetics and the product spectrum of mutant SmuA. […] The initial velocities for the production of isomaltulose were measured by HPLC at sucrose concentrations of 50 mM, 100 mM, 150 mM, 200 mM, 300 mM, and 400 mM. The enzyme activity assay was carried out in 25 mM calcium acetate buffer pH 5.5 at 20 °C and 74.7 nM of the enzyme. […] Chromatographic conditions: XBridge amide column (particle size: 5.0 µm, inner diameter: 4.6, length: 250 mm); flow rate: 2 mL/min; injection volume: 20 µL; running buffer: 57.8 % acetonitrile, 26.1 % acetone, 16.1 % H2O. Detection via Smartline refractive index detector 2300. The enzyme activity assay was carried out in 25 mM calcium acetate buffer pH 5.5 in the presence of 1.16 M sucrose and 74.4 nM of the recombinant wild type enzyme for 16 h at 20 °C. Table 1: Composition of the isomerization products from sucrose by engineered SmuA variants.

Series [2] concerns the target Serratia plymuthica sucrose isomerase SmuA variant SmuA(Q181P/D398G/F453Y) (Serratia plymuthica, UniProt D0VX20, D383G/F438Y/Q166P/V450E). The description is as above. In kind it is biochemical. As to conditions: 25 mM calcium acetate pH 5.5, 20 °C, 74.7 nM enzyme, 50-400 mM sucrose. On the procedure: as §1, §2, §3
The Michaelis constant (KM), the turnover number (kcat) and the catalytic efficiency (kcat/KM) were determined for isomaltulose. […] To determine the initial velocities at these sucrose concentrations, the isomaltulose yield was analysed via HPLC and plotted against the respective sucrose concentration. […]
Figure 1 illustrates analysis of the enzyme kinetics and the product spectrum of mutant SmuA. […] The initial velocities for the production of isomaltulose were measured by HPLC at sucrose concentrations of 50 mM, 100 mM, 150 mM, 200 mM, 300 mM, and 400 mM. […]

Setting [3] is: other: SmuA(Y219L/T369F/D398G/F453Y).

As for “Serratia plymuthica sucrose isomerase SmuA variant SmuA(Y219L) (Serratia plymuthica; V450E/Y204L)”, in series [1] (other: SmuA(Y219L)), the Km – broadly, the substrate concentration at which the rate is half of its maximum – came out at 86.64 mM; the kcat (as a rule, the number of substrate molecules converted per active site and unit of time at saturation) turned out to be 665.77 s⁻¹; the kcat/Km (commonly the second-order rate constant that governs catalysis at low substrate concentration) was 7680 M⁻¹ s⁻¹.

“Serratia plymuthica sucrose isomerase SmuA variant SmuA(Y219L/D398G) (Serratia plymuthica; D383G/V450E/Y204L)”: in series [1] (other: SmuA(Y219L/D398G)), the Km stood at 60.16 mM, the kcat was 708.22 s⁻¹ and the kcat/Km is 11770 M⁻¹ s⁻¹.

Regarding “Serratia plymuthica sucrose isomerase SmuA, used as wildtype SmuA (UniProt D0VX20 with point mutation V465E, SEQ ID NO:3) (Serratia plymuthica; V450E)”, in series [1] (other: SmuA), the Km is 55.25 mM, the kcat turned out to be 965.15 s⁻¹ and the kcat/Km stood at 17470 M⁻¹ s⁻¹.

On to `OC[C@H]1O[C@@](CO)(O[C@H]2O[C@H](CO)[C@@H](O)[C@H](O)[C@H]2O)[C@@H](O)[C@@H]1O` [sucrose], for which the kcat in series [2] turned out to be 122.88 s⁻¹.

With “Serratia plymuthica sucrose isomerase SmuA variant SmuA(Y219L/T369F/D398G/F453Y) (Serratia plymuthica; D383G/F438Y/T354F/V450E/Y204L)”, in series [1] (setting [3]), the Km turned out to be 58.16 mM, the kcat stood at 201.07 s⁻¹ and the kcat/Km turned out to be 3460 M⁻¹ s⁻¹.

Source of the values: EP3653708A1, “ISOMALTULOSE PRODUCTION” (Evonik Operations GmbH, priority 2018, dated 2020).
